According to PMC4829425:

Legend:
[1] = target: full length wild-type human VEGFR-2 (human) (UniProt P35968)
[2] = target: VEGFR-2 EC+TM-(GGS)5-YFP or -mCherry (human) (UniProt P35968)
[3] = target: VEGFR-2 EC(C482R)+TM(N762I-V769I-G770I)-(GGS)5-YFP or -mCherry (human) (UniProt P35968); assay: FRET or BRET; QI-FRET between YFP- and mCherry-tagged copies in single plasma membrane-derived vesicles of co-transfected CHO cells, no ligand; monomer-dimer equilibrium model, dimer to monomers; two-dimensional concentrations (receptors per square micron)
[4] = target: VEGFR-2 EC(C482R)+TM-(GGS)5-YFP or -mCherry (human) (UniProt P35968); assay: FRET or BRET; QI-FRET in CHO plasma membrane-derived vesicles with 3 ug/ml VEGF-A121, 1 hr at room temperature
[5] = target: VEGFR-2 EC(C482R)+TM-(GGS)5-YFP or -mCherry (human) (UniProt P35968); assay: FRET or BRET; QI-FRET between YFP- and mCherry-tagged copies in single plasma membrane-derived vesicles of co-transfected CHO cells, no ligand; monomer-dimer equilibrium model, dimer to monomers; two-dimensional concentrations (receptors per square micron)
[6] = target: VEGFR-2 EC+TM(E764I-T771I-F778I)-(GGS)5-YFP or -mCherry (human) (UniProt P35968); assay: FRET or BRET; QI-FRET in CHO plasma membrane-derived vesicles with 3 ug/ml VEGF-A121, 1 hr at room temperature
[7] = target: VEGFR-2 EC+TM(E764I-T771I-F778I)-(GGS)5-YFP or -mCherry (human) (UniProt P35968); assay: FRET or BRET; QI-FRET between YFP- and mCherry-tagged copies in single plasma membrane-derived vesicles of co-transfected CHO cells, no ligand; monomer-dimer equilibrium model, dimer to monomers; two-dimensional concentrations (receptors per square micron)
[8] = target: VEGFR-2 EC+TM(N762I-V769I-G770I)-(GGS)5-YFP or -mCherry (human) (UniProt P35968); assay: FRET or BRET; QI-FRET in CHO plasma membrane-derived vesicles with 3 ug/ml VEGF-A121, 1 hr at room temperature
[9] = target: VEGFR-2 EC+TM-(GGS)5-YFP or -mCherry (human) (UniProt P35968); assay: as above
[10] = target: VEGFR-2 EC+TM-(GGS)5-YFP or -mCherry (human) (UniProt P35968); assay: FRET or BRET; QI-FRET in CHO plasma membrane-derived vesicles with 3 ug/ml VEGF-E, 1 hr at room temperature
[11] = target: VEGFR-2 EC+TM-(GGS)5-YFP or -mCherry (human) (UniProt P35968); assay: FRET or BRET; QI-FRET in CHO plasma membrane-derived vesicles with 3 ug/ml VEGF-C, 1 hr at room temperature
[12] = target: VEGFR-2 EC+TM-(GGS)5-YFP or -mCherry (human) (UniProt P35968); assay: FRET or BRET; QI-FRET in CHO plasma membrane-derived vesicles with 3 ug/ml VEGF-A165b, 1 hr at room temperature
[13] = target: VEGFR-2 EC+TM-(GGS)5-YFP or -mCherry (human) (UniProt P35968); assay: FRET or BRET; QI-FRET in CHO plasma membrane-derived vesicles with 3 ug/ml VEGF-D, 1 hr at room temperature
[14] = target: VEGFR-2 EC+TM-(GGS)5-YFP or -mCherry (human) (UniProt P35968); assay: FRET or BRET; QI-FRET in CHO plasma membrane-derived vesicles with 3 ug/ml VEGF-A165a, 1 hr at room temperature

VEGF-E (ligand)
phosphorylation of full-length VEGFR-2 (Tyr 1175, Western blot) with 3 ug/ml ligand against no ligand [1]: < 10 fold
Intrinsic FRET of the EC+TM dimer (YFP/mCherry) with 3 ug/ml ligand; 0.61 without ligand [2]: 0.44

VEGFR-2 EC(C482R)+TM(N762I-V769I-G770I)-(GGS)5-YFP or -mCherry (from UniProt P35968 20-1356) (domain or fragment)
percent dimer [3]: 100%

VEGFR-2 EC(C482R)+TM-(GGS)5-YFP or -mCherry (from UniProt P35968 20-1356) (domain or fragment)
percent dimer [4]: 100%
percent dimer [5]: 100%

VEGFR-2 EC+TM(E764I-T771I-F778I)-(GGS)5-YFP or -mCherry (from UniProt P35968 20-1356) (domain or fragment)
percent dimer [6]: 100%
percent dimer [7]: 100%

VEGFR-2 EC+TM(N762I-V769I-G770I)-(GGS)5-YFP or -mCherry (from UniProt P35968 20-1356) (domain or fragment)
percent dimer [8]: 100%

VEGFR-2 EC+TM-(GGS)5-YFP or -mCherry (from UniProt P35968 20-1356) (domain or fragment)
percent dimer [9]: 100%
percent dimer [10]: 100%
percent dimer [11]: 100%
percent dimer [12]: 100%
percent dimer [13]: 100%
percent dimer [14]: 100%

human VEGF-C (from UniProt P49767 112-227) (ligand)
phosphorylation of full-length VEGFR-2 (Tyr 1175, Western blot) with 3 ug/ml ligand against no ligand [1]: < 10 fold
Intrinsic FRET of the EC+TM dimer (YFP/mCherry) with 3 ug/ml ligand; 0.61 without ligand [2]: 0.45

human VEGF-D (from UniProt O43915 89-205) (ligand)
phosphorylation of full-length VEGFR-2 (Tyr 1175, Western blot) with 3 ug/ml ligand against no ligand [1]: < 10 fold
Intrinsic FRET of the EC+TM dimer (YFP/mCherry) with 3 ug/ml ligand; 0.61 without ligand [2]: 0.43
